The experiment addresses human IgG Fc (Biotin-SP-ChromPure Human IgG, Fc fragment) (human, biotin (Biotin-SP)). Put plainly: SPR. The settings on record: both partners purified.

ENLYFQGECKGKGAKCSSISIHDAHCCTGSCRSGKC (designed binder) [His(6)-SUMO-TEV-Ig-CON-5 fusion protein]: binding was characterised by a dissociation constant (Kd) of 22.2 nM.

These data come from article PMC10977726 (PLOS ONE, 2024).
